This passage reports Mean tumor volume results from US20250000991A1, “NECTIN-4 ANTIBODIES AND ANTIBODY-DRUG CONJUGATES” (Eli Lilly and Company, priority 2023, published 2025).

B1: Ab6 ADC: Ab6 conjugated as in Formula XI, and with a DAR of 8 (conjugate)
heavy: QVQLVQSGAEVKKPGASVKVSCKASGYTFTGYYMHWVRQAPGQGLEWMGIINPSGGSTTYAQKFQGRVTMTRDTSTSTVYMELSSLRSEDTAVYYCARGRLGTYFDYWGQGTLVTVSSASTKGPSVFPLAPSSKSTSGGTAALGCLVKDYFPEPVTVSWNSGALTSGVHTFPAVLQSSGLYSLSSVVTVPSSSLGTQTYICNVNHKPSNTKVDKRVEPKSCDKTHTCPPCPAPEAAGGPSVFLFPPKPKDTLMISRTPEVTCVVVSVSHEDPEVKFNWYVDGVEVHNAKTKPREEQYNSTYRVVSVLTVLHQDWLNGKEYKCKVSNKALPAPIEKTISKAKGQPREPQVYTLPPSREEMTKNQVSLTCLVKGFYPSDIAVEWESNGQPENNYKTTPPVLDSDGSFFLYSKLTVDKSRWQQGNVFSCSVMHEALHNHYTQKSLSLSPGK
light: SYVLTQPPSVSVAPGQTARITCGGNNIGSKSVHWYQQKPGQAPVLVVYDDSDRPSGIPERFSGSNSGNTATLTISRVEAGDEADYYCQVWDRSSDQVVFGGGTKLTVLGQPKAAPSVTLFPPSSEELQANKATLVCLISDFYPGAVTVAWKADSSPVKAGVETTTPSKQSNNKYAASSYLSLTPEQWKSHRSYSCQVTHEGSTVEKTVAPTECS
B2: Ab4 ADC: Ab4 conjugated as in Formula XI, and with a DAR of 8 (conjugate)
heavy: QVQLQESGPGLVKPSETLSLTCTVSGGSISGYYWSWIRQPPGKGLEWIGYIYYSGSTNYNPSLKSRVTISVDTSKNQFSLKLSSVTAADTAVYYCARLGIFFDAFDIWGQGTLVTVSSASTKGPSVFPLAPSSKSTSGGTAALGCLVKDYFPEPVTVSWNSGALTSGVHTFPAVLQSSGLYSLSSVVTVPSSSLGTQTYICNVNHKPSNTKVDKRVEPKSCDKTHTCPPCPAPEAAGGPSVFLFPPKPKDTLMISRTPEVTCVVVSVSHEDPEVKFNWYVDGVEVHNAKTKPREEQYNSTYRVVSVLTVLHQDWLNGKEYKCKVSNKALPAPIEKTISKAKGQPREPQVYTLPPSREEMTKNQVSLTCLVKGFYPSDIAVEWESNGQPENNYKTTPPVLDSDGSFFLYSKLTVDKSRWQQGNVFSCSVMHEALHNHYTQKSLSLSPGK
light: DIQLTQSPSFLSASVGDRVTITCRASQGISSYLAWYQQKPGKAPKLLIYAASTLQSGVPSRFSGSGSGTEFTLTISSLQPEDFATYYCQQFNSYPWTFGQGTKVEIKRTVAAPSVFIFPPSDEQLKSGTASVVCLLNNFYPREAKVQWKVDNALQSGNSQESVTEQDSKDSTYSLSSTLTLSKADYEKHKVYACEVTHQGLSSPVTKSFNRGEC
B3: Ab5 ADC: Ab5 conjugated as in Formula XI, and with a DAR of 8 (conjugate)
heavy: QVQLVQSGAEVKKPGASVKVSCKASGYTFTSYYVHWVRQAPGQGLEWMGIINPSIISTSYAQKFQARVTMTRDTSTSTVYMELSSLRSEDTAVYYCARGLNFDAFDIWGQGTLVTVSSASTKGPSVFPLAPSSKSTSGGTAALGCLVKDYFPEPVTVSWNSGALTSGVHTFPAVLQSSGLYSLSSVVTVPSSSLGTQTYICNVNHKPSNTKVDKRVEPKSCDKTHTCPPCPAPEAAGGPSVFLFPPKPKDTLMISRTPEVTCVVVSVSHEDPEVKFNWYVDGVEVHNAKTKPREEQYNSTYRVVSVLTVLHQDWLNGKEYKCKVSNKALPAPIEKTISKAKGQPREPQVYTLPPSREEMTKNQVSLTCLVKGFYPSDIAVEWESNGQPENNYKTTPPVLDSDGSFFLYSKLTVDKSRWQQGNVFSCSVMHEALHNHYTQKSLSLSPGK
light: B2 light with F91L, S93N, W96F

Substitutions are numbered along the chain they refer to.

One assay deals with UM-UC-3 Nectin4 clone F7 xenograft. In words: Tumor xenograft, high nectin-4 expression. In kind it is in vivo, mice (nu/nu). Conditions: UMUC3 Nectin-4 clone F7 xenograft, single dose 2 mg/kg, day 40. The procedure: In order to test the efficacy of the nectin-4 ADCs of the present disclosure, which have effector null mutations in the Fc region, and to compare to the enfortumab antibody, which has wildtype Fc and in an ADC with the same payload background as the ones of this disclosure, two tumor xenograft models with either high or moderate nectin-4 expression were tested as described. Immune compromised female mice (nu/nu) between 5-8 weeks of age with weight 18-20 grams were implanted unilaterally on the right flank with UM-UC-3 Nectin4 clone F7 cells with high nectin-4 expression. […] The test articles were given at a single dose (2 mg/kg) formulated with 5% dextrose. Tumors were measured biweekly until Day 40.
The molecule B1 showed a Mean tumor volume of 866.94 mm^3.
The same measure, in the same setting: for B2 the value was 928.09 mm^3.
Consider B3, for which the Mean tumor volume is 632.99 mm^3.

A further assay relates to MDA-MB-468 xenograft. Kind of assay: Tumor xenograft, moderate nectin-4 expression. The format is in vivo, NSG mice. Conditions: MDAMB468 xenograft, single dose 2 mg/kg, day 71. The procedure:
In a separate study, female NSG mice between 5-6 weeks of age were injected subcutaneously with MDA-MB-468 cells with moderate Nectin-4 expression. When tumors reached approximately 150-250 mm^3; animals were matched by tumor volume into treatment or control groups and dosing initiated (Day 0, n=8 per group). The test articles were given at a single dose (2 mg/kg) formulated with 5% Dextrose. Tumors were measured biweekly until Day 71.
In both models, a 2 mg/kg single dose treatment of either the nectin-4 ADCs (exemplified herein with each of Abs1-8 conjugated as in Formula XI, and with a DAR of 8) or benchmark enfortumab ADC (enfortumab conjugated with Formula XI, and with a DAR of 8) was used. Tumor growth was measured at day 40 for UMUC3 Nectin-4 clone F7 and day 71 for MDAMB468 xenografts.
With B1, the Mean tumor volume is 304.9 mm^3.
The same measure, in the same setting: for B2 the value was 343.65 mm^3.
For the molecule B3, the Mean tumor volume is 220.38 mm^3.
